Experimental data reported in patent CN116239684A (WUHAN ABCLONAL CO LTD, dated 2023).
Where a chain is given by its changes, count along the chain named. One block for each binder: values may come before it.

Target: 重组人CALR融合蛋白 (recombinant human calreticulin fusion protein, residues 18-203, Example 1) (human, UniProt P27797 18-203)
Assay: SPR, Biacore 3000, curve fitting

重组人CALR融合蛋白 (recombinant human calreticulin fusion protein, residues 18-203, Example 1), sequence (P27797 18-203): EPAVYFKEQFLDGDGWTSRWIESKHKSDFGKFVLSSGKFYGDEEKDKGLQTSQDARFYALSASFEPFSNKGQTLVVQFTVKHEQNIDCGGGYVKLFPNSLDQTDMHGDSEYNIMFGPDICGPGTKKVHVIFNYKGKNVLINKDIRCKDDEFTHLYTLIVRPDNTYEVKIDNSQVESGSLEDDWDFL

Kd: 4.88 nM
B1: 兔单克隆抗体2G2 (rabbit monoclonal antibody 2G2 against human calreticulin) (antibody, V domains shown)
VH: QEQLEESGGGLVQPEGSLTLTCTASGFSINNNYWICWVRQAPGKGLEWVGCISIADNSNTYYATWAKGRVTISKTSSTTVTLQMTSLTAADTATYFCARGPAVISFNLWGPGTLVTVSS
VL: AQVLTQTPSSTSAAVGGTVTINCQASESVYGNNRLAWYQQKPGQPPKRLIYDASTLASGVPSRFSGSGSGKQFTLTMSGVQCDDAATYYCIGHFYSGINSISFGGGTEVVVKG
notes: Recombinant rabbit IgG made in 293F cells; also called 2G2抗体; 兔抗人CALR单克隆抗体2G2

Kd: 4.34 nM
B2: 兔单克隆抗体3B3 (rabbit monoclonal antibody 3B3 against human calreticulin) (antibody, V domains shown)
VH: QSLEESGGGLVQPEGSLTLTCTASGFSFSSSYWICWVRQAPGKGLEWIGCISIDDNSNTYYASWAKGRVTISKTSSTTVTLQMTSLTAADTATYFCARGPGIIFYNLWGPGTLVTVSS
VL: B1 VL with G31N, T55K, S65K, S96T, G97S, I101V, S102T
notes: Recombinant rabbit IgG made in 293F cells; also called 3B3抗体; 兔抗人CALR单克隆抗体3B3
